Measured values as given in paper PMC9848473.

How the values were obtained:
[1] = target: Rel (Bacillus subtilis) (UniProt O54408); conditions: cited from earlier work
[2] = target: Bacillus subtilis Rel N-terminal domain region (RelBs^NTD; residues 1 to 373) (Bacillus subtilis); experiment: ITC; DarB or DarB variants in the syringe at 200 μM, RelBs^NTD or variants in the cell at 15 μM; 25°C; 50 mM Hepes pH 7.5, 500 mM KCl, 500 mM NaCl, 10 mM MgCl2, 1 mM TCEP, 0.002% mellitic acid
[3] = target: RelBs^NTD Y279A (B. subtilis); experiment: ITC; DarB or DarB variant (200 uM) in the syringe titrated into RelBs^NTD or variant (15 uM) in the cell; 25 °C; 50 mM Hepes pH 7.5, 500 mM KCl, 500 mM NaCl, 10 mM MgCl2, 1 mM TCEP, 0.002% mellitic acid

| Substance | Kd [1] [nM] | Kd [2] [nM] | Kd [3] [nM] |
| --- | --- | --- | --- |
| DarB (from UniProt O31698) | 650 | – | – |
| Bacillus subtilis DarB (from UniProt O31698 1-147) (natural protein) | – | 1400 | 4000 |
